# Test results published in IntAct's records for PubMed 11880648.
# B1: RNA polymerase sigma factor SigA (Mycobacterium tuberculosis (strain ATCC 25618 / P9WGI1 (parent)
# chain: MAATKASTATDEPVKRTATKSPAASASGAKTGAKRTAAKSASGSPPAKRATKPAARSVKPASAPQDTTTSTIPKRKTRAAAKSAAAKAPSARGHATKPRAPKDAQHEAATDPEDALDSVEELDAEPDLDVEPGEDLDLDAADLNLDDLEDDVAPDADDDLDSGDDEDHEDLEAEAAVAPGQTADDDEEIAEPTEKDKASGDFVWDEDESEALRQARKDAELTASADSVRAYLKQIGKVALLNAEEEVELAKRIEAGLYATQLMTELSERGEKLPAAQRRDMMWICRDGDRAKNHLLEANLRLVVSLAKRYTGRGMAFLDLIQEGNLGLIRAVEKFDYTKGYKFSTYATWWIRQAITRAMADQARTIRIPVHMVEVINKLGRIQRELLQDLGREPTPEELAKEMDITPEKVLEIQQYAREPISLDQTIGDEGDSQLGDFIEDSEAVVAVDAVSFTLLQDQLQSVLDTLSEREAGVVRLRFGLTDGQPRTLDEIGQVYGVTRERIRQIESKTMSKLRHPSRSQVLRDYLD
# partner: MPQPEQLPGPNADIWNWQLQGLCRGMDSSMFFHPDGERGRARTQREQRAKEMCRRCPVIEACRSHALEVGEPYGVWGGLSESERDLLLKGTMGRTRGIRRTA
# Variants of: B1
# Details: with whib3_myctu whiB3, P9WF41
row,Variant,effect of a mutation on the interaction
1,MAATKASTATDEPVKRTATKSPAASASGAKTGAKRTAAKSASGSPPAKRATKPAARSVKPASAPQDTTTSTIPKRKTRAAAKSAAAKAPSARGHATKPRAPKDAQHEAATDPEDALDSVEELDAEPDLDVEPGEDLDLDAADLNLDDLEDDVAPDADDDLDSGDDEDHEDLEAEAAVAPGQTADDDEEIAEPTEKDKASGDFVWDEDESEALRQARKDAELTASADSVRAYLKQIGKVALLNAEEEVELAKRIEAGLYATQLMTELSERGEKLPAAQRRDMMWICRDGDRAKNHLLEANLRLVVSLAKRYTGRGMAFLDLIQEGNLGLIRAVEKFDYTKGYKFSTYATWWIRQAITRAMADQARTIRIPVHMVEVINKLGRIQRELLQDLGREPTPEELAKEMDITPEKVLEIQQYAREPISLDQTIGDEGDSQLGDFIEDSEAVVAVDAVSFTLLQDQLQSVLDTLSEREAGVVRLRFGLTDGQPRTLDEIGQVYGVTRERIRQIESKTMSKLHHPSRSQVLRDYLD [R515H],disrupting interaction strength
